According to patent EP4574169A1:
Like-named read-outs stand apart in the source and are kept apart here.

How the values were obtained:
[1] = molecular target: ACE2; assay: ratio of ACE2 binding ELISA to Spike RBD detection ELISA; concentrated supernatant of virus-infected Vero cells
[2] = molecular target: ACE2; assay: ACE2 binding detection ELISA (ACE2 on solid phase, detection with anti-spikeRBD antibody); concentrated supernatant of virus-infected Vero cells
[3] = molecular target: ACE2

Substance	ACE2 bind/ Spike RBD [1]	ACE2 bind [2] [ng/mL]	ACE2 bind [3] [ng/mL]	ACE2 bind/ Spike RBD [3]
Cov2SPPF (polypeptide B: structure of A with further deletion of the furin cleavage site, R683A R685 (from UniProt P0DTC2 14-1273)	0.094	0.5	7	0.076
Cov2STH (polypeptide C: mu-phosphatase leader, extracellular region (ECD) of the spike protein, PP m (from UniProt P0DTC2 16-1213)	6.5	19.8	202	2.3
